Experimental data: article PMC4809639

T1: FGF14 (1b isoform), wild type, fused to split firefly luciferase fragments (UniProt Q92915)
T1 sequence: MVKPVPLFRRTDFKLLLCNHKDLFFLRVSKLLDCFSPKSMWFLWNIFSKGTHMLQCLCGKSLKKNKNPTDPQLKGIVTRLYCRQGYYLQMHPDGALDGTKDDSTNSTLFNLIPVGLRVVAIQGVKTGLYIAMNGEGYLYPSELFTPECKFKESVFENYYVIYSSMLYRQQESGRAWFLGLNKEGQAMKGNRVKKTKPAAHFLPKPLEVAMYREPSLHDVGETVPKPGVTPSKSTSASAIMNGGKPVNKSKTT


Assays:
Test in all cases: split reporter
[1] = biological target: FGF14^Y153N/V155N (1b isoform) fused to split firefly luciferase fragments
[2] = biological target: T1, FGF14 (1b isoform), wild type, fused to split firefly luciferase fragments
[3] = biological target: FGF14^Y153N/V155N (1b isoform) fused to split firefly luciferase fragments; conditions: split reporter (BiFC, NanoBiT)
[4] = biological target: T1, FGF14 (1b isoform), wild type, fused to split firefly luciferase fragments; remark: listed apart in the source

| % maximal luminescence against the FGF14:FGF14 dimer [1] [%] | % maximal luminescence against the FGF14:FGF14 dimer [2] [%] | % maximal luminescence of CLuc-FGF14:FGF14-NLuc left with 10 uM peptide [4] [%] | Molecule | % maximal luminescence of the FGF14^Y153N/V155N:FGF14 heterodimer left with FLPK [3] [%] |
| --- | --- | --- | --- | --- |
| 136 | 109 | – | FGF14^Y153N/V155N (1b isoform) fused to split firefly luciferase fragments (natural protein) | – |
| – | – | 75 | Ac-FLPK-NH2 [Ac-FLPK-NH2] | 90.8 ± 5.1 |
